Experimental findings from US5861254 are described below.

For orientation: Kd means a measure of binding affinity in units of concentration.

Series [1] has as its target T1, L-selectin-IgG1 Fc fusion (LS-Rg) (Homo sapiens) (UniProt P14151).
T1 sequence: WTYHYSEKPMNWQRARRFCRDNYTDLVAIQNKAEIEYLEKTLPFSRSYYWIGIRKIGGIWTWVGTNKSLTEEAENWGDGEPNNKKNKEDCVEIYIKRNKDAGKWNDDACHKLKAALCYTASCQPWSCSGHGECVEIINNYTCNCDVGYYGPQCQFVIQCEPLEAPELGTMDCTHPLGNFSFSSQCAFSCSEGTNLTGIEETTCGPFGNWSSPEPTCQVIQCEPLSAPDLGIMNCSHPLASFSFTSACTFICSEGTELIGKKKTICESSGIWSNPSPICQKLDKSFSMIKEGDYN
The experiment in a line: SPR. The following applies: 2'-F pyrimidines, 2'-OH purines, SHMCK buffer with Ca and Mg.

For series [2], the target named is T1, L-selectin-IgG1 Fc fusion (LS-Rg) (Homo sapiens). The experiment in a line: filter. Conditions: 2'-F pyrimidines, 2'-OH purines.

Turning to “UCGGGCGGAAUUCAGGNNNNNNNNNNNNNNNNNNNNNNNNNNNNNNCCGCAUCGUCCUCCC [Flow Cell SELEX Rnd 5 pool]”, the dissociation constant Kd in series [1] (ka 3.7e5, kd 1.5e-3) was 4.1 nM; in series [2] (only slightly improved over round 3 (160 pM), plateau below 20% bound), under 1 nM. On to “UCGGGCGGAAUUCAGGNNNNNNNNNNNNNNNNNNNNNNNNNNNNNNCCGCAUCGUCCUCCC [Flow Cell SELEX Rnd 4 pool]”, for which, in series [1] (ka 7.5e4, kd 1.8e-3), the Kd was found to be 24 nM. Turning to “UCGGGCGGAAUUCAGGNNNNNNNNNNNNNNNNNNNNNNNNNNNNNNCCGCAUCGUCCUCCC [Flow Cell SELEX Rnd 3 pool]”, the Kd came to 39 nM in series [1] (ka 4.9e4, kd 1.9e-3) and 0.16 nM in series [2] (nitrocellulose filter binding, pool plateau below 20% bound in final mixtures). In the case of “UCGGGCGGAAUUCAGGNNNNNNNNNNNNNNNNNNNNNNNNNNNNNNCCGCAUCGUCCUCCC [Flow Cell SELEX Rnd 2 pool]”, the dissociation constant (Kd) in series [1] (ka 1.7e4, kd 1.8e-3) came to 110 nM.
